In this data set the target is human alpha-synuclein (wild-type, recombinant).

B1: adrenergic, beta, receptor kinase 1 (GRK2; BARK1) (protein)
chain: MADLEAVLADVSYLMAMEKSKATPAARASKKILLPEPSIRSVMQKYLEDRGEVTFEKIFSQKLGYLLFRDFCLNHLEEARPLVEFYEEIKKYEKLETEEERVARSREIFDSYIMKELLACSHPFSKSATEHVQGHLGKKQVPPDLFQPYIEEICQNLRGDVFQKFIESDKFTRFCQWKNVELNIHLTMNDFSVHRIIGRGGFGEVYGCRKADTGKMYAMKCLDKKRIKMKQGETLALNERIMLSLVSTGDCPFIVCMSYAFHTPDKLSFILDLMNGGDLHYHLSQHGVFSEADMRFYAAEIILGLEHMHNRFVVYRDLKPANILLDEHGHVRISDLGLACDFSKKKPHASVGTHGYMAPEVLQKGVAYDSSADWFSLGCMLFKLLRGHSPFRQHKTKDKHEIDRMTLTMAVELPDSFSPELRSLLEGLLQRDVNRRLGCLGRGAQEVKESPFFRSLDWQMVFLQKYPPPLIPPRGEVNAADAFDIGSFDEEDTKGIKLLDSDQELYRNFPLTISERWQQEVAETVFDTINAETDRLEARKKAKNKQLGHEEDYALGKDCIMHGYMSKMGNPFLTQWQRRYFYLFPNRLEWRGEGEAPQSLLTMEEIQSVEETQIKERKCLLLKIRGGKQFILQCDSDPELVQWKKELRDAYREAQQLVQRVPKMKNKPRSPVVELSKVPLVQRGSANGL
For the protein B1, the “S129 phosphorylation, immunoblot (mAb 11A5), rank of signal” value (“S129 phosphorylation … of signal” below) was “CKI>GRK6>PLK2>GRK4>GRK5>GRK2”; the “in vitro kinase reaction, phosphorylation of alpha-synuclein at serine 129” value (from here on “in vitro kinase reaction … at serine 129”) was “capable of phosphorylating alpha-synuclein specifically at serine 129 and did not phosphorylate serine 87 in vitro”.

B2: PLK4 (protein)
chain: MATCIGEKIEDFKVGNLLGKGSFAGVYRAESIHTGLEVAIKMIDKKAMYKAGMVQRVQNEVKIHCQLKHPSILELYNYFEDSNYVYLVLEMCHNGEMNRYLKNRVKPFSENEARHFMHQIITGMLYLHSHGILHRDLTLSNLLLTRNMNIKIADFGLATQLKMPHEKHYTLCGTPNYISPEIATRSAHGLESDVWSLGCMFYTLLIGRPPFDTDTVKNTLNKVVLADYEMPSFLSIEAKDLIHQLLRRNPADRLSLSSVLDHPFMSRNSSTKSKDLGTVEDSIDSGHATISTAITASSSTSISGSLFDKRRLLIGQPLPNKMTVFPKNKSSTDFSSSGDGNSFYTQWGNQETSNSGRGRVIQDAEERPHSRYLRRAYSSDRSGTSNSQSQAKTYTMERCHSAEMLSVSKRSGGGENEERYSPTDNNANIFNFFKEKTSSSSGSFERPDNNQALSNHLCPGKTPFPFADPTPQTETVQQWFGNLQINAHLRKTTEYDSISPNRDFQGHPDLQKDTSKNAWTDTKVKKNSDASDNAHSVKQQNTMKYMTALHSKPEIIQQECVFGSDPLSEQSKTRGMEPPWGYQNRTLRSITSPLVAHRLKPIRQKTKKAVVSILDSEEVCVELVKEYASQEYVKEVLQISSDGNTITIYYPNGGRGFPLADRPPSPTDNISRYSFDNLPEKYWRKYQYASRFVQLVRSKSPKITYFTRYAKCILMENSPGADFEVWFYDGVKIHKTEDFIQVIEKTGKSYTLKSESEVNSLKEEIKMYMDHANEGHRICLALESIISEEERKTRSAPFFPIIIGRKPGSTSSPKALSPPPSVDSNYPTRERASFNRMVMHSAASPTQAPILNPSMVTNEGLGLTTTASGTDISSNSLKDCLPKSAQLLKSVFVKNVGWATQLTSGAVWVQFNDGSQLVVQAGVSSISYTSPNGQTTRYGENEKLPDYIKQKLQCLSSILLMFSNPTPNFH
Consider B2, for which the Fold Change in Percent Synuclein Phosphorylation (ELISA, HEK-293 overexpression) is 1 fold; the “Proportion of total synuclein that is phoshorylated at ser-129 (ELISA, HEK-293 overexpression)” value came out at 1.9%; the “in vitro biochemical assay, phosphorylation of synuclein” value is “PLK4 exhibiting no ability to phosphorylate synuclein”.

B3: met proto-oncogene (hepatocyte growth factor receptor) (protein)
chain: KKRKQIKDLGSELVRYDARVHTPHLDRLVSARSVSPTTEMVSNESVDYRATFPEDQFPNSSQNGSCRQVQYPLTDMSPILTSGDSDISSPLLQNTVHIDLSALNPELVQAVQHVVIGPSSLIVHFNEVIGRGHFGCVYHGTLLDNDGKKIHCAVKSLNRITDIGEVSQFLTEGIIMKDFSHPNVLSLLGICLRSEGSPLVVLPYMKHGDLRNFIRNETHNPTVKDLIGFGLQVAKGMKYLASKKFVHRDLAARNCMLDEKFTVKVADFGLARDMYDKEYYSVHNKTGAKLPVKWMALESLQTQKFTTKSDVWSFGVLLWELMTRGAPPYPDVNTFDITVYLLQGRRLLQPEYCPDPLYEVMLKCWHPKAEMRPSFSELVSRISAIFSTFIGEHYVHVNATYVNVKCVAPYPSLLSSEDNADDEVDTRPASFWETS
On to B3, for which the “in vitro kinase reaction, phosphorylation of alpha-synuclein” value was “shown to be incapable of directly phosphorylating alpha-synuclein”.

B4: CDC7 cell division cycle 7-like 1 (protein)
chain: MEASLGIQMDEPMAFSPQRDRFQAEGSLKKNEQNFKLAGVKKDIEKLYEAVPQLSNVFKIEDKIGEGTFSSVYLATAQLQVGPEEKIALKHLIPTSHPIRIAAELQCLTVAGGQDNVMGVKYCFRKNDHVVIAMPYLEHESFLDILNSLSFQEVREYMLNLFKALKRIHQFGIVHRDVKPSNFLYNRRLKKYALVDFGLAQGTHDTKIELLKFVQSEAQQERCSQNKSHIITGNKIPLSGPVPKELDQQSTTKASVKRPYTNAQIQIKQGKDGKEGSVGLSVQRSVFGERNFNIHSSISHESPAVKLMKQSKTVDVLSRKLATKKKAISTKVMNSAVMRKTASSCPASLTCDCYATDKVCSICLSRRQQVAPRAGTPGFRAPEVLTKCPNQTTAIDMWSAGVIFLSLLSGRYPFYKASDDLTALAQIMTIRGSRETIQAAKTFGKSILCSKEVPAQDLRKLCERLRGMDSSTPKLTSDIQGHASHQPAISEKTDHKASCLVQTPPGQYSGNSFKKGDSNSCEHCFDEYNTNLEGWNEVPDEAYDLLDKLLDLNPASRITAEEALLHPFFKDMSL
As for B4, the “in vitro kinase reaction, phosphorylation of alpha-synuclein” value is given as “shown to be incapable of directly phosphorylating alpha-synuclein”.

B5: GRK7 (protein)
chain: MVDMGALDNLIANTAYLQARKPSDCDSKELQRRRRSLALPGLQGCAELRQKLSLNFHSLCEQQPIGRRLFRDFLATVPTFRKAATFLEDVQNWELAEEGPTKDSALQGLVATCASAPAPGNPQPFLSQAVATKCQAATTEEERVAAVTLAKAEAMAFLQEQPFKDFVTSAFYDKFLQWKLFEMQPVSDKYFTEFRVLGKGGFGEVCAVQVKNTGKMYACKKLDKKRLKKKGGEKMALLEKEILEKVSSPFIVSLAYAFESKTHLCLVMSLMNGGDLKFHIYNVGTRGLDMSRVIFYSAQIACGMLHLHELGIVYRDMKPENVLLDDLGNCRLSDLGLAVEMKGGKPITQRAGTNGYMAPEILMEKVSYSYPVDWFAMGCSIYEMVAGRTPFKDYKEKVSKEDLKQRTLQDEVKFQHDNFTEEAKDICRLFLAKKPEQRLGSREKSDDPRKHHFFKTINFPRLEAGLIEPPFVPDPSVVYAKDIAEIDDFSEVRGVEFDDKDKQFFKNFATGAVPIAWQEEIIETGLFEELNDPNRPTGCEEGNSSKSGVCLLL
In the case of B5, the “S129 phosphorylation, immunoblot (mAb 11A5)” value was “Prominent signals came from all GRKs except for GRK7”; the “in vitro kinase reaction … at serine 129” value is “capable of phosphorylating alpha-synuclein specifically at serine 129 and did not phosphorylate serine 87 in vitro”; the “phosphorylation of alpha-synuclein in vitro” value is given as “GRK 7 was not able to phosphorylate at appreciable levels”.

B6: PLK3 (protein)
chain: MEPAAGFLSPRPFQRAAAAPAPPAGPGPPPSALRGPELEMLAGLPTSDPGRLITDPRSGRTYLKGRLLGKGGFARCYEATDTETGSAYAVKVIPQSRVAKPHQREKILNEIELHRDLQHRHIVRFSHHFEDADNIYIFLELCSRKSLAHIWKARHTLLEPEVRYYLRQILSGLKYLHQRGILHRDLKLGNFFITENMELKVGDFGLAARLEPPEQRKKTICGTPNYVAPEVLLRQGHGPEADVWSLGCVMYTLLCGSPPFETADLKETYRCIKQVHYTLPASLSLPARQLLAAILRASPRDRPSIDQILRHDFFTKGYTPDRLPISSCVTVPDLTPPNPARSLFAKVTKSLFGRKKKSKNHAQERDEVSGLVSGLMRTSVGHQDARPEAPAASGPAPVSLVETAPEDSSPRGTLASSGDGFEEGLTVATVVESALCALRNCIAFMPPAEQNPAPLAQPEPLVWVSKWVDYSNKFGFGYQLSSRRVAVLFNDGTHMALSANRKTVHYNPTSTKHFSFSVGAVPRALQPQLGILRYFASYMEQHLMKGGDLPSVEEVEVPAPPLLLQWVKTDQALLMLFSDGTVQVNFYGDHTKLILSGWEPLLVTFVARNRSACTYLASHLRQLGCSPDLRQRLRYALRLLRDRSPA
Consider B6, for which the Fold Change in Percent Synuclein Phosphorylation (ELISA, HEK-293 overexpression) is 39.6 fold; the “Proportion of total synuclein that is phoshorylated at ser-129 (ELISA, HEK-293 overexpression)” value is reported as 79.2%; the “in vitro biochemical assay, phosphorylation of synuclein” value was “PLK2 and PLK3 having extremely robust phosphorylation of synuclein”.

B7: GRK4 (protein)
chain: MELENIVANSLLLKARQGGYGKKSGRSKKWKEILTLPPVSQCSELRHSIEKDYSSLCDKQPIGRRLFRQFCDTKPTLKRHIEFLDAVAEYEVADDEDRSDCGLSILDRFFNDKLAAPLPEIPPDVVTECRLGLKEENPSKKAFEECTRVAHNYLRGEPFEEYQESSYFSQFLQWKWLERQPVTKNTFRHYRVLGKGGFGEVCACQVRATGKMYACKKLQKKRIKKRKGEAMALNEKRILEKVQSRFVVSLAYAYETKDALCLVLTIMNGGDLKFHIYNLGNPGFDEQRAVFYAAELCCGLEDLQRERIVYRDLKPENILLDDRGHIRISDLGLATEIPEGQRVRGRVGTVGYMAPEVVNNEKYTFSPDWWGLGCLIYEMIQGHSPFKKYKEKVKWEEVDQRIKNDTEEYSEKFSEDAKSICRMLLTKNPSKRLGCRGEGAAGVKQHPVFKDINFRRLEANMLEPPFCPDPHAVYCKDVLDIEQFSVVKGIYLDTADEDFYARFATGCVSIPWQNEMIESGCFKDINKSESEEALPLDLDKNIHTPVSRPNRGFFYRLFRRGGCLTMVPSEKEVEPKQC
As for B7, the “S129 phosphorylation … of signal” value is “CKI>GRK6>PLK2>GRK4>GRK5>GRK2”.

B8: G protein-coupled receptor kinase 6 (protein)
chain: MELENIVANTVLLKAREGGGGNRKGKSKKWRQMLQFPHISQCEELRLSLERDYHSLCERQPIGRLLFREFCATRPELSRCVAFLDGVAEYEVTPDDKRKACGRQLTQNFLSHTGPDLIPEVPRQLVTNCTQRLEQGPCKDLFQELTRLTHEYLSVAPFADYLDSIYFNRFLQWKWLERQPVTKNTFRQYRVLGKGGFGEVCACQVRATGKMYACKKLEKKRIKKRKGEAMALNEKQILEKVNSRFVVSLAYAYETKDALCLVLTLMNGGDLKFHIYHMGQAGFPEARAVFYAAEICCGLEDLHRERIVYRDLKPENILLDDHGHIRISDLGLAVHVPEGQTIKGRVGTVGYMAPEVVKNERYTFSPDWWALGCLLYEMIAGQSPFQQRKKKIKREEVERLVKEVPEEYSERFSPQARSLCSQLLCKDPAERLGCRGGSAREVKEHPLFKKLNFKRLGAGMLEPPFKPDPQAIYCKDVLDIEQFSTVKGVELEPTDQDFYQKFATGSVPIPWQNEMVETECFQELNVFGLDGSVPPDLDWKGQPPAPPKKGLLQRLFSRQDCCGNCSDSEEELPTRL
Turning to B8, the “S129 phosphorylation in vitro, kinases normalized by activity units” value is “The most prominent result came from GRK6”; the “S129 phosphorylation, immunoblot (mAb 11A5), kinase:rAS 1:200 molar” value was “Prominent signals came from GRK6, CKI, CKII and PLK2”; the “S129 phosphorylation … of signal” value was “CKI>GRK6>PLK2>GRK4>GRK5>GRK2”; the “in vitro kinase reaction … at serine 129” value was “capable of phosphorylating alpha-synuclein specifically at serine 129 and did not phosphorylate serine 87 in vitro”. Moreover, the “phospho ser-129 in vitro, kinases normalized for molarity” value was “roughly equivalent levels of phospho ser-129 between CKI, GRK6 and PLK2”.

The values above are taken from patent publication US20110207796.
